Measurements reported in the supplement of paper PMC10899765.

Columns and labels:
Settings in all cases: 20 nM; 72 h
[1] = system: MCF10A; assay: percent viability (nuclei count relative to siNT); higher = more viable cells
Method: (§1)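 After 72 h, cells were fixed and stained with Hoechst and anti-fibrillarin, and nucleoli per nucleus were counted with CellProfiler. Values are plate-adjusted percent effect for the one-nucleolus and 5+ nucleoli phenotypes, normalised to siNT (0%) and to the positive controls siNOL11 or siKIF11 (100%), as the mean of biological triplicates. Percent viability is the nuclei count relative to siNT.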

[2] = system: MCF10A; assay: 5+ nucleoli phenotype percent effect (relative to siNT 0% and siKIF11 100%); higher = more cells with five or more nucleoli
Method: as §1

[3] = system: MCF10A; assay: one-nucleolus phenotype percent effect (relative to siNT 0% and siNOL11 100%); higher = more cells with one nucleolus (ribosome biogenesis inhibition)
Method: as §1

Row | Sequence | percent viability [1] [%] | 5+ nucleoli phenotype percent effect [2] [%] | one-nucleolus phenotype percent effect [3] [%]
1 | CAGUAACAAAGAUUCAUCCUUGU [hsa-miR-802] | 81.8 | -6.89 | -6.9
2 | UUUUGCAUGACCCUGGGAGUAGG [hsa-miR-3680-3p] | 51 | -18.3 | 11.5
3 | UCACCCUGCAUCCCGCACCCAG [hsa-miR-3620-3p] | 77 | 11.8 | -11.9
4 | UGUUGCAAGUCGGUGGAGACGU [hsa-miR-4684-3p] | 43.9 | -9.23 | 4.39
5 | AAAGACCGUGACUACUUUUGCA [hsa-miR-548ao-3p] | 80.6 | -18.1 | 18.2
6 | CUGUACAACCUUCUAGCUUUCC [hsa-let-7c-3p] | 74.2 | -7.45 | -4.89
7 | AGCUUCCAUGACUCCUGAUGGA [hsa-miR-2115-5p] | 137 | -3.91 | -7.01
8 | UGAAGCUCUGACAUUCCUGCAG [hsa-miR-6806-3p] | 26.6 | -18.7 | 15.3
9 | AUACUGUGAAUUUCACUGUCACA [hsa-miR-4693-5p] | 53.9 | -20.3 | 2.95
10 | AGGAGGGAAGGGGCUGAGAACAGGA [hsa-miR-6797-5p] | 80.7 | 33.9 | -10.1
11 | AAACCGUUACCAUUACUGAGUU [hsa-miR-451a] | 69.8 | 12.9 | -5.64
12 | ACUGGCAUGCUGCAUUUAUAUA [hsa-miR-4799-3p] | 66.3 | 50.9 | -19.8
13 | UUGAUCUCGGAAGCUAAGC [hsa-miR-7641] | 82.6 | 6.46 | -20.1
14 | CUUAUAUCAGAGGCUGUGGG [hsa-miR-6083] | 40.8 | -34.4 | 28.6
15 | CAAACCACACUGUGGUGUUAGA [hsa-miR-497-3p] | 49.6 | 4.48 | -11.5
16 | AGGGGUGGUGUUGGGACAGCUCCGU [hsa-miR-608] | 10.6 | -9.99 | 8.02
17 | CGCGGGCGCUCCUGGCCGCCGCC [hsa-miR-4767] | 58.8 | 26.9 | -12.9
18 | CUCAUCUGCAAAGAAGUAAGUG [hsa-miR-452-3p] | 21.6 | -40.5 | 48.1
19 | CCUGUGGGCCACCUAGUCACCAA [hsa-miR-134-3p] | 44.8 | -15.2 | 8.84
20 | UCCCUCCUUCUGUCCCCACAG [hsa-miR-4667-3p] | 71.8 | -12.9 | -2.78
21 | CAACAAAUCCCAGUCUACCUAA [hsa-miR-7-2-3p] | 104 | 4.35 | -10.8
22 | AAGCUCAGGUUUGAGAACUGCUGA [hsa-miR-6854-5p] | 57.3 | -24.5 | 18.3
23 | UUCAUUUGCCUCCCAGCCUACA [hsa-miR-664b-3p] | 28.7 | -29.2 | 39.1

Row | Sequence | percent viability [1] [%] | 5+ nucleoli phenotype percent effect [2] [%] | one-nucleolus phenotype percent effect [3] [%]
24 | CCUGCGUGUUUUCUGUCCAA [hsa-miR-4520b-5p] | 51 | -6.92 | 1.66
25 | GGUGGCCCGGCCGUGCCUGAGG [hsa-miR-663b] | 124 | 47.3 | -23.6
26 | GGAUAUCAUCAUAUACUGUAAG [hsa-miR-144-5p] | 54.5 | 2.47 | -0.41
27 | UAACUGGUUGAACAACUGAACC [hsa-miR-582-3p] | 106 | 31.1 | -29.8
28 | UGCCCUCCUUUCUUCCCUC [hsa-miR-4290] | 21.6 | -8.55 | -1.5
29 | CUUAUCAGAUUGUAUUGUAAUU [hsa-miR-374a-3p] | 160 | 33 | -24.3
30 | CAACUAGACUGUGAGCUUCUAG [hsa-miR-708-3p] | 199 | 46.1 | -31
31 | GAGUGUAGUUCUGAGCAGAGC [hsa-miR-4280] | 29.9 | -17.9 | 18.3
32 | UUGUUCUCAAACUGGCUGUCAGA [hsa-miR-7156-5p] | 46.2 | 25.8 | -16.5
33 | CCCUCUCUGGCUCCUCCCCAAA [hsa-miR-4723-3p] | 114 | 50.7 | -23.7
34 | AAGUGCCUCCUUUUAGAGUGUU [hsa-miR-519e-3p] | 40.9 | -1.33 | -10.9
35 | UGAGAACCACGUCUGCUCUGAG [hsa-miR-589-5p] | 88.9 | -4.96 | -14.3
36 | CCUGUUCUCCAUUACUUGGCUC [hsa-miR-26b-3p] | 63.1 | -23.3 | 7.43
37 | UGGAUGUGGAAGGAGUUAUCU [hsa-miR-4764-5p] | 7.49 | -8.02 | -0.862
38 | AAAGACUCUGCAAGAUGCCU [hsa-miR-4432] | 67.3 | -6.99 | -5.81
39 | UAGCUUAUCAGACUGAUGUUGA [hsa-miR-21-5p] | 121 | 11.7 | -9.39
40 | GGAUCCGAGUCACGGCACCA [hsa-miR-4454] | 56 | 0.148 | -14.9
41 | UGAGGUAGUAGUUUGUGCUGUU [hsa-let-7i-5p] | 16.5 | 23.9 | -11.8
42 | UAAUGCAUUAAAUUAUUGAAGG [hsa-miR-5700] | 125 | 47.4 | -23.8
43 | UUUUGCACCUUUUGGAGUGAA [hsa-miR-507] | 42.2 | -28 | 25.1
44 | UGUCUGCCCGCAUGCCUGCCUCU [hsa-miR-346] | 32.5 | -26.4 | 31
45 | AGGGUGUUUCUCUCAUCUCU [hsa-miR-609] | 74 | 53.7 | -18.6
